Assay results reported in paper PMC8277577.

Target: C144 (human)
Assay: BLI

SARS-CoV-2 receptor binding domain (RBD) (from UniProt P0DTC2 319-539) (domain or fragment)
Kd: 0.149 µM
